Experimental data taken from FireProtDB (doi:10.1021/bi9901228).

B1: Lysozyme C, P61626 (parent)
chain: MKALIVLGLVLLSVTVQGKVFERCELARTLKRLGMDGYRGISLANWMCLAKWESGYNTRATNYNAGDRSTDYGIFQINSRYWCNDGKTPGAVNACHLSCSALLQDNIADAVACAKRVVRDPQGIRAWVAWRNRCQNRDVRQYVQGCGV

Variants of: B1
Conditions: Homo sapiens; pH 2.51; Thermal; DSC; glycine 0.05 M; reversible: yes; structure 1LZ1; whole UniProt chain shown

Variant | Tm | heat capacity change of unfolding | unfolding enthalpy (calorimetric) | unfolding enthalpy (van 't Hoff)
S79A | 57 °C | 1.1 kcal/mol/K | 99 kcal/mol | 103 kcal/mol
S69A | 61 °C | 1.48 kcal/mol/K | 106 kcal/mol | 113 kcal/mol
S100A | 62.5 °C | 1.41 kcal/mol/K | 111 kcal/mol | 117 kcal/mol

Same assay, conditions: Homo sapiens; pH 2.7; Thermal; DSC; glycine 0.05 M; reversible: yes; structure 1LZ1; whole UniProt chain shown

Variant | Tm | change of melting temperature, mutant - wild type (higher = more stable) | heat capacity change of unfolding | unfolding enthalpy (calorimetric)
S79A | 60.6 °C | -4.3 °C | 1.27 kcal/mol/K | 109 kcal/mol
S54A | 61.4 °C | -3.5 °C | 1.31 kcal/mol/K | 109 kcal/mol
S69A | 64.2 °C | -0.7 °C | 1.43 kcal/mol/K | 112 kcal/mol
S100A | 66 °C | 1.1 °C | 1.27 kcal/mol/K | 114 kcal/mol
S98A | 66.3 °C | 1.4 °C | 1.43 kcal/mol/K | 116 kcal/mol
S42A | 63.3 °C | -1.6 °C | 1.51 kcal/mol/K | 110 kcal/mol

Same assay, conditions: Homo sapiens; pH 2.84; Thermal; DSC; glycine 0.05 M; reversible: yes; structure 1LZ1; whole UniProt chain shown

Variant | Tm | heat capacity change of unfolding | unfolding enthalpy (calorimetric) | unfolding enthalpy (van 't Hoff)
S79A | 63.6 °C | 1.15 kcal/mol/K | 107 kcal/mol | 111 kcal/mol
S54A | 64 °C | 1.24 kcal/mol/K | 107 kcal/mol | 113 kcal/mol

Same assay, conditions: Homo sapiens; pH 3.1; Thermal; DSC; glycine 0.05 M; reversible: yes; structure 1LZ1; whole UniProt chain shown

Variant | Tm | heat capacity change of unfolding | unfolding enthalpy (calorimetric) | unfolding enthalpy (van 't Hoff)
S79A | 68.3 °C | 1.31 kcal/mol/K | 113 kcal/mol | 118 kcal/mol

Same assay, conditions: Homo sapiens; pH 2.47; Thermal; DSC; glycine 0.05 M; reversible: yes; structure 1LZ1; whole UniProt chain shown

Variant | Tm | heat capacity change of unfolding | unfolding enthalpy (calorimetric) | unfolding enthalpy (van 't Hoff)
S54A | 57.1 °C | 1.31 kcal/mol/K | 98.5 kcal/mol | 103 kcal/mol

Same assay, conditions: Homo sapiens; pH 2.67; Thermal; DSC; glycine 0.05 M; reversible: yes; structure 1LZ1; whole UniProt chain shown

Variant | Tm | heat capacity change of unfolding | unfolding enthalpy (calorimetric) | unfolding enthalpy (van 't Hoff)
S54A | 60.8 °C | 1.31 kcal/mol/K | 104 kcal/mol | 109 kcal/mol

Same assay, conditions: Homo sapiens; pH 3.09; Thermal; DSC; glycine 0.05 M; reversible: yes; structure 1LZ1; whole UniProt chain shown

Variant | Tm | heat capacity change of unfolding | unfolding enthalpy (calorimetric) | unfolding enthalpy (van 't Hoff)
S54A | 68.7 °C | 1.22 kcal/mol/K | 114 kcal/mol | 119 kcal/mol
S42A | 70.3 °C | 1.41 kcal/mol/K | 118 kcal/mol | 123 kcal/mol

Same assay, conditions: Homo sapiens; pH 2.69; Thermal; DSC; glycine 0.05 M; reversible: yes; structure 1LZ1; whole UniProt chain shown

Variant | Tm | heat capacity change of unfolding | unfolding enthalpy (calorimetric) | unfolding enthalpy (van 't Hoff)
S69A | 64.2 °C | 1.43 kcal/mol/K | 111 kcal/mol | 118 kcal/mol
S98A | 66.2 °C | 1.34 kcal/mol/K | 119 kcal/mol | 126 kcal/mol

Same assay, conditions: Homo sapiens; pH 2.86; Thermal; DSC; glycine 0.05 M; reversible: yes; structure 1LZ1; whole UniProt chain shown

Variant | Tm | heat capacity change of unfolding | unfolding enthalpy (calorimetric) | unfolding enthalpy (van 't Hoff)
S69A | 66.7 °C | 1.55 kcal/mol/K | 115 kcal/mol | 121 kcal/mol

Same assay, conditions: Homo sapiens; pH 3.11; Thermal; DSC; glycine 0.05 M; reversible: yes; structure 1LZ1; whole UniProt chain shown

Variant | Tm | heat capacity change of unfolding | unfolding enthalpy (calorimetric) | unfolding enthalpy (van 't Hoff)
S69A | 70.8 °C | 1.36 kcal/mol/K | 120 kcal/mol | 126 kcal/mol
S98A | 73.6 °C | 1.39 kcal/mol/K | 129 kcal/mol | 135 kcal/mol

Same assay, conditions: Homo sapiens; pH 2.85; Thermal; DSC; glycine 0.05 M; reversible: yes; structure 1LZ1; whole UniProt chain shown

Variant | Tm | heat capacity change of unfolding | unfolding enthalpy (calorimetric) | unfolding enthalpy (van 't Hoff)
S100A | 68.9 °C | 1.2 kcal/mol/K | 120 kcal/mol | 128 kcal/mol
S98A | 69.1 °C | 1.34 kcal/mol/K | 122 kcal/mol | 129 kcal/mol

Same assay, conditions: Homo sapiens; pH 3.12; Thermal; DSC; glycine 0.05 M; reversible: yes; structure 1LZ1; whole UniProt chain shown

Variant | Tm | heat capacity change of unfolding | unfolding enthalpy (calorimetric) | unfolding enthalpy (van 't Hoff)
S100A | 73.5 °C | 1.41 kcal/mol/K | 125 kcal/mol | 133 kcal/mol

Same assay, conditions: Homo sapiens; pH 2.5; Thermal; DSC; glycine 0.05 M; reversible: yes; structure 1LZ1; whole UniProt chain shown

Variant | Tm | heat capacity change of unfolding | unfolding enthalpy (calorimetric) | unfolding enthalpy (van 't Hoff)
S98A | 62.7 °C | 1.41 kcal/mol/K | 113 kcal/mol | 120 kcal/mol

Same assay, conditions: Homo sapiens; pH 2.46; Thermal; DSC; glycine 0.05 M; reversible: yes; structure 1LZ1; whole UniProt chain shown

Variant | Tm | heat capacity change of unfolding | unfolding enthalpy (calorimetric) | unfolding enthalpy (van 't Hoff)
S42A | 58.8 °C | 1.46 kcal/mol/K | 101 kcal/mol | 105 kcal/mol

Same assay, conditions: Homo sapiens; pH 2.66; Thermal; DSC; glycine 0.05 M; reversible: yes; structure 1LZ1; whole UniProt chain shown

Variant | Tm | heat capacity change of unfolding | unfolding enthalpy (calorimetric) | unfolding enthalpy (van 't Hoff)
S42A | 62.5 °C | 1.67 kcal/mol/K | 106 kcal/mol | 111 kcal/mol

Same assay, conditions: Homo sapiens; pH 2.82; Thermal; DSC; glycine 0.05 M; reversible: yes; structure 1LZ1; whole UniProt chain shown

Variant | Tm | heat capacity change of unfolding | unfolding enthalpy (calorimetric) | unfolding enthalpy (van 't Hoff)
S42A | 65.7 °C | 1.55 kcal/mol/K | 112 kcal/mol | 117 kcal/mol
